Measured values as given in patent US6762284 (ONYX PHARMACEUTICALS, dated 2004).
Read-outs that look alike come from different tables or passages of the source.

Columns and labels:
Assay in all cases: yeast two-hybrid
[1] = target: T1, p85 C-terminal SH2 domain (AA 620-727) (human, UniProt P04386 1-147; P27986 620-724)
[2] = target: T2, p85 SH3 domain (AA 6-117) (human, UniProt P04386 1-147; P27986 6-117)
[3] = target: T3, p85 Bcr homology domain (AA 118-340) (human, UniProt P04386 1-147; P27986 118-340)
[4] = target: T1, p85 C-terminal SH2 domain (AA 620-727); remark: listed apart in the source
[5] = target: T2, p85 SH3 domain (AA 6-117); remark: listed apart in the source
[6] = target: T3, p85 Bcr homology domain (AA 118-340); remark: listed apart in the source
[7] = target: T4, p85 full length (AA 6-727) (human, UniProt P04386 1-147; P27986 6-724)
T4 construct: also called GAL4-p85

[8] = target: p85 SH2 domains and inter SH2 domain (AA 263-727) (human, UniProt P04386 1-147; P27986 263-724)
[9] = target: T5, p85 N-terminal SH2 and inter SH2 domain (AA 263-620) (human, UniProt P04386 1-147; P27986 263-620)
T5 construct: Two-hybrid bait fusion

Measured: binding result

B1: PIKAP AA 517-589 (other, not shown: large carriers)
chain: DRLIALKAVTNFGVPVEVFDSEEAEIFQKKLDETTRLLRELQEAQNERLSTRPPGNMICLLGPSSEKCILLNK
notes: The text speaks of the last 74 amino acids, while 517-589 counts 73 residues; also called last 74 amino acids of the c-terminal end of PIKAP
no binding: [1] | [2] | [3]

B2: PIKAP AA 277-589 (other, not shown: large carriers)
chain: EDSGDAEAHAFKSPSKENKKKDKDMLEDKFKSNNLEREQEQLDRIVKESGGKLTRRLVNSQCEFERRKPDGTTTLGLLHPVDPIVGEPGYCLVRLGMTTGRLQSGVNTLQGFKEDKRNKVTPVLYLNYGPYSSYAPHYDSTFANISKDDSDLIYSTYGEDSDLPSDFSIHEFLATCQDYPYVMADSLLDVLTKGGHSRTLQEMEMSLPEDEGHTRTLDTGKEMEQITEVEPPGRLDSSTQDRLIALKAVTNFGVPVEVFDSEEAEIFQKKLDETTRLLRELQEAQNERLSTRPPGNMICLLGPSSEKCILLNK
notes: Two-hybrid prey fusion expressed in yeast YGH1; also called original isolate from two hybrid screening; PI3K Associated Protein AA 277-589
no binding: [4] | [5] | [6]

B3: PIKAP AA 277-360 (other, not shown: large carriers)
chain: EDSGDAEAHAFKSPSKENKKKDKDMLEDKFKSNNLEREQEQLDRIVKESGGKLTRRLVNSQCEFERRKPDGTTTLGLLHPVDPI
not listed: [4] | [5] | [6]
no binding: all other assays above

B4: PIKAP AA 361-516 (other, not shown: large carriers)
chain: VGEPGYCLVRLGMTTGRLQSGVNTLQGFKEDKRNKVTPVLYLNYGPYSSYAPHYDSTFANISKDDSDLIYSTYGEDSDLPSDFSIHEFLATCQDYPYVMADSLLDVLTKGGHSRTLQEMEMSLPEDEGHTRTLDTGKEMEQITEVEPPGRLDSSTQ
not listed: [4] | [5] | [6]
no binding: all other assays above
